# Results as given in patent US20060259987.
# T1: LEAI.472
# T1 chain: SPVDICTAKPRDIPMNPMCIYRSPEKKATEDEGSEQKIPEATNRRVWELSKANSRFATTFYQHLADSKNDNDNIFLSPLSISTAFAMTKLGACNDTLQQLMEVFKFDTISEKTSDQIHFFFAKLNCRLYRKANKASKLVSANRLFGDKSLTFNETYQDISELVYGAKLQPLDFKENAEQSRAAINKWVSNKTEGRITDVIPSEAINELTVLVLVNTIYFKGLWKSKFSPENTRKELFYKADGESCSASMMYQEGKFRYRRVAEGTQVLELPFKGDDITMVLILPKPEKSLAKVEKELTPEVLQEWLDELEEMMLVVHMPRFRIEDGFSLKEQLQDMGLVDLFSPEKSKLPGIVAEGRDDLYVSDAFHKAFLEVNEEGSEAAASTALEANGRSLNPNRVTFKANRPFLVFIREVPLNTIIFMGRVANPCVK
# T2: LEAI.474
# T2 chain: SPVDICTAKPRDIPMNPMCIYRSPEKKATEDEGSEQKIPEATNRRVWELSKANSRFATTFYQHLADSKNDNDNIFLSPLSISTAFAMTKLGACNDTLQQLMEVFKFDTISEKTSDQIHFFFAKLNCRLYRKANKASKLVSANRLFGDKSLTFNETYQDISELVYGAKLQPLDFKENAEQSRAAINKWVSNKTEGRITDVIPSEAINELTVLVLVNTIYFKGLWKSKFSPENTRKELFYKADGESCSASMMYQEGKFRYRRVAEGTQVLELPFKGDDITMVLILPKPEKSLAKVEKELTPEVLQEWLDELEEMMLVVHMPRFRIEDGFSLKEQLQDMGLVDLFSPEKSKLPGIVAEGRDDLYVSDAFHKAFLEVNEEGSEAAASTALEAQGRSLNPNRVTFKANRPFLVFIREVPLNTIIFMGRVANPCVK
# T3: LEAI.480
# T3 chain: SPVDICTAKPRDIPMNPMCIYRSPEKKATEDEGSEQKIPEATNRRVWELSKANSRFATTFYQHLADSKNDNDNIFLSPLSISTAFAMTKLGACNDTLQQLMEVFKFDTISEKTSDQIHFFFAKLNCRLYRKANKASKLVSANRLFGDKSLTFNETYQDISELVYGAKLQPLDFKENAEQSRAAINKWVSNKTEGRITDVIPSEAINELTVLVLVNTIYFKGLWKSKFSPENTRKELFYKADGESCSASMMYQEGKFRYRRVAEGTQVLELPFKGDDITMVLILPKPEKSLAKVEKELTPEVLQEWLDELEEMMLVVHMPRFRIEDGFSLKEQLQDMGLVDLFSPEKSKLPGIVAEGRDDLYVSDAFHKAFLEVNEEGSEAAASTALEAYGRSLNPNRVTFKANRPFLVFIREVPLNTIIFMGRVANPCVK
# T4: LEAI.482
# T4 chain: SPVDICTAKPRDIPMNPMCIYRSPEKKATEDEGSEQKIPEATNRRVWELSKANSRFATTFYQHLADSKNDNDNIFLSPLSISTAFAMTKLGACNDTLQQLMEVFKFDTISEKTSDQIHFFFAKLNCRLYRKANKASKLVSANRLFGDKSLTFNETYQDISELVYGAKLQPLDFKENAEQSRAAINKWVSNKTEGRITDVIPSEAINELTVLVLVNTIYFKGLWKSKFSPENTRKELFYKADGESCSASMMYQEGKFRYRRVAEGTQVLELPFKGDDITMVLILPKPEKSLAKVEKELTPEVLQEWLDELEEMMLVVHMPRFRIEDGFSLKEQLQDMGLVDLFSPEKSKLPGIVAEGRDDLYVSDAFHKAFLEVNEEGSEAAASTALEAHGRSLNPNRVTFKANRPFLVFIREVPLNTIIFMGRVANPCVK
# Tests used:
# [1] = target: T1, LEAI.472
# [2] = target: T2, LEAI.474
# [3] = target: T3, LEAI.480
# [4] = target: T4, LEAI.482
# [5] = target: plasma-derived ATIII, P01008
Protein,"Substrate: halflife, min, CatG [1] [min]","Substrate: halflife, min, CatG [2] [min]","Substrate: halflife, min, CatG [3] [min]","Substrate: halflife, min, CatG [4] [min]","Substrate: halflife, min, HNE [1] [min]",halflife HNE/hep as a percentage of plasma ATIII value [1] [%],"Substrate: halflife, min, HNE [2] [min]",halflife HNE/hep as a percentage of plasma ATIII value [2] [%],"Substrate: halflife, min, HNE [3] [min]",halflife HNE/hep as a percentage of plasma ATIII value [3] [%],"Substrate: halflife, min, HNE [4] [min]",halflife HNE/hep as a percentage of plasma ATIII value [4] [%],"Substrate: halflife, min, HNE [5] [min]"
human neutrophil cathepsin G (protein) IIGGRESRPHSRPYMAYLQIQSPAGQSRCGGFLVREDFVLTAAHCWGSNINVTLGAHNIQRRENTQQHITARRAIRHPQYNQRTIQNDIMLLQLSRRVRRNRNVNPVALPRAQEGLRPGTLCTVAGWGRVSMRRGTDTLREVQLRVQRDRQCLRIFGSYDPRRQICVGDRRERKAAFKGDSGGPLLCNNVAHGIVSYGKSSGVPPEVFTRVSSFLPWIRTTMRS,333,> 300,35.8,> 240,–,–,–,–,–,–,–,–,–
human neutrophil elastase (protein) IVGGRRARPHAWPFMVSLQLRGGHFCGATLIAPNFVMSAAHCVANVNVRAVRVVLGAHNLSRREPTRQVFAVQRIFENGYDPVNLLNDIVILQLNGSATINANVQVAQLPAQGRRLGNGVQCLAMGWGLLGRNRGIASVLQELNVTVVTSLCRRSNVCTLVRGRQAGVCFGDSGSPLVCNGLIHGIASFVRGGCASGLYPDAFAPVAQFVNWIDSIIQ,–,–,–,–,30.1,1038,38.4,1324,19.9,686,25.3,872,2.9
